# Assay results from US6890526B2, “Methods and reagents for the treatment of multiple sclerosis” (Vanderbilt University, priority 1997, dated 2005).
# Assays:
# [1] = tested on: MOMP gene of C. pneumoniae; experiment: PCR/Southern hybridization of CSF for the MOMP gene; details: CSF PCR signal for the MOMP gene of C. pneumoniae after antibiotics; all patients PCR-positive before therapy
# Experimental: To at least 300 μl of CSF sample, 200 μl of HBSS containing 0.25% trypsin and 1 mM EDTA at pH 7.2 was added to achieve a final concentration of 0.1% trypsin, and the sample vortexed and then incubated at 37° C. for 30 minutes. Following incubation, the sample was again vortexed, centrifuged for 45 minutes at 12,000×g in a microcentrifuge, and the pellet resuspended in 20 μl of lysis buffer (0.5% sodium dodecylsulfate (SDS), 1% NP40, 0.2 M NaCl, 10 μM DTT, 10 mM EDTA, 20 mM Tris-HCl at pH 7.5). To this was added 8 μl of proteinase K (20 μg/ml; Boehringer-Mannheim, Indianapolis, Ind.), after which the specimen was mixed and incubated overnight at 37° C. […]
# PCR was carried out using the entire MOMP gene (1.2 kb) using Deep Vent polymerase in the manufacturer's buffer (New England Biolabs, Boston, Mass.) with no additional MgCl2. […] PCR reactions were analyzed by electrophoresis in 1% agarose gel for 45 minutes at 95 volts. For confirmation and enhanced sensitivity, the gels were further analyzed by Southern hybridization using a digoxigenin-labeled (DIG, Boehringer-Mannheim) MOMP gene probe from the TWAR strain of C. pneumoniae (ATCC VR-1310). […]
# Nested PCR primers were chosen within the MOMP which are C. pneumoniae specific (located in variable domains 1 and 4) and yield a 727 bp band. […] PCR reactions were analyzed by electrophoresis in 1% agarose gel for 45 minutes at 95 volts. […]
# MS patients [2] = experiment: Treatment of MS patients with combinations of anti-chlamydial agents, case histories (Tables 8-10); format: in vivo, human; details: patient; drug stopped, later phased back in
# Text: The case histories for these patients are described in Table 9.
# MS patients [3] = experiment: Long-term combination therapy of 12 progressive MS patients, EDSS (Table 11); format: in vivo, human; details: patient #12; azithromycin substituted
# Experimental: All 12 patients were positive by PCR for the MOMP gene of C. pneumoniae in the CSF. In 10 of 12 patients, the highest Expanded Disability Status Scale (EDSS; Kurtzke, Neurology 33:1444-1152, 1983) score reached was sustained for six months. […] The antibiotic regimen in eight of 12 patients was a combination of rifampin (300 mg twice daily), amoxicillin (500 mg twice daily) and probenecid (500 mg daily).
# IL-12/p40 = experiment: Sandwich ELISA for IL-12/p40 in macrophage culture supernatants; format: cell-based, mouse
# Experimental: (§1) Splenocytes were washed twice in PBS and plated in 24-well culture plates (Corning, Corning, N.Y.) in Dulbecco's minimal essential medium (DMEM; GIBCO BRL, Gaithersburg, Md.) containing 10% fetal calf serum (FCS; Hyclone, Logan, Utah) at 37° C. for two hours. Non-adherent cells were washed away by gentle rinsing in warm medium, and the macrophages were allowed to adhere to the plastic wells overnight. For optimal growth of macrophages, colony stimulating factor-1 (CSF-1) obtained from culture supernatants of LADMAC cells (American Type Tissue Collection (ATCC), Manassas, Va.) was added to reach a final concentration of 20%. After reaching confluence, cells were removed from the plastic wells by gentle trituration and examined for their purity by staining with fluoroscein-conjugated anti-CD11b and anti-I-As (clone 10-3.6) antibodies.
# IL-12/p40 in culture supernatants was quantitated using sandwich ELISA methodology. Antibody C17.15 was coated onto ELISA plates at 2 μg/ml in 100 μl of carbonate buffer at pH 9.3. After overnight incubation at 4° C., excess antibody was washed off, and the plates were blocked by addition of PBS containing 3% BSA. Samples and standards were plated in triplicate and incubated overnight at 4° C. […] The absorbance was read at 405 nm and sample concentrations of IL-12/p40 were calculated from a rIL-12/p40 standard curve.
# iNOS (NOS2) gene = experiment: RT-PCR for iNOS (NOS2) gene products in splenic macrophages; format: cell-based, mouse; details: β-IFN alone; compared with GAPDH mRNA (FIG. 12A)
# Experimental: as §1
# Mouse splenic macrophages were homogenized in TRI reagent (Molecular Research Center, Cincinnati, Ohio), and total RNA was extracted according to the manufacturer's protocol. […]
# iNOS = experiment: Measurement of NO production (nitrite, Greiss reagent) in splenic macrophage culture supernatants; format: cell-based, mouse
# Experimental: as §1
# EB antigens were prepared from concentrated C. pneumoniae EBs by treating them with 25 mM DTT, 2% 2-mercaptoethanol, and 2% dodecylsulfate (SDS) for 5 minutes at 100° C. Treated EBs were sonicated, centrifuged (500×g for 30 minutes at room temperature) and the supernatant resuspended at 2 μg/ml protein in PBS pH 7.4. Concentrated C. pneumoniae EBs were obtained by growing C. pneumoniae (VR-1310; ATTC) in 25 ml flasks containing a confluent growth of HL cells (Human Lung Carcinoma Cells; Washington University Foundation, Seattle, Wash.) in DMEM and 10% FCS . Infection was facilitated by two washes with Hank's balanced salt solution (HBSS; GIBCO) followed by a 20 minute pre-incubation with diethylaminoethyl-dextran (30 μg/ml) (DEAE-Dextran; GIBCO) in HBSS. The infectious inoculum (ATCC VR-1310) was added to the flasks in 2 ml of serum-free media. The flasks were then centrifuged at 1,200×g for 1 hour at 4° C. To the spun flasks was added 2 ml of Iscoves medium (GIBCO) containing 4 μg/ml cyclohexamide, 20% FCS, 4 mM L-glutamine (Sigma), and 100 μg/ml gentamicin (Sigma). The flasks were then incubated at 35° C. for three days at which time the infected cells begin to lyse and release EBs. On day 4, the culture flasks were sonicated for 20 seconds, and the cell debris removed by centrifugation at 600×g for five minutes at room temperature. The supernatant containing the infectious EBs was centrifuged at 18,000×g for 30 minutes, and the pellet resolubilized in water containing 25 mM DTT, 2% 2-mercaptoethanol, and 2% SDS.
# Preparation of purified rMOMP was performed as follows. The full-length native C. pneumoniae MOMP gene was expressed in the pET-32/a (+) E. coli expression system using a polyhistidine tag (Novagen, Madison, Wis.). Briefly the MOMP was amplified under the same PCR conditions with a NcoI extension on the forward primer and a NotI extension on the reverse primer. The 5′ to 3′ sequence of the forward primer was AGCTTACCATGGTGAATGAAAAAACTCTTAAAGTCGGCG (SEQ ID NO: 9) and the reverse primer was ATATGCGGCCGCTCATTAGAATCTGAACTGACCAGATACG (SEQ ID NO: 10). The product was cut with NotI and NcoI and ligated into the multiple cloning site in a previously linearized pET vector. E. coli was transformed and selectively grown, lysed with a French press, and the protein extract was run over a Ni-chelate column and eluted with […]. […]
# NO is rapidly oxidized to nitrite in culture medium. […] After a 10 minute incubation at room temperature, the absorbance was read at 550 nm. Nitrite concentrations were calculated from a sodium nitrite standard curve.
molecule,measurement,setting,value
CC[C@H]1OC(=O)[C@H](C)[C@@H](O[C@H]2C[C@@](C)(OC)[C@@H](O)[C@H](C)O2)[C@H](C)[C@@H](O[C@@H]2O[C@H](C)C[C@H](N(C)C)[C@H]2O)[C@](C)(O)C[C@@H](C)CN(C)[C@H](C)[C@@H](O)[C@]1(C)O [azithromycin],PCR Signal Post-antibiotics,[1],Absent
"Cc1ncc([N+](=O)[O-])n1CCO [metronidazole, Metronidazole]",side effects,MS patients [2],side effects
CO[C@H]1/C=C/O[C@@]2(C)Oc3c(C)c(O)c4c(O)c(c(/C=N/N5CCN(C)CC5)c(O)c4c3C2=O)NC(=O)/C(C)=C\C=C\[C@H](C)[C@H](O)[C@@H](C)[C@@H](O)[C@@H](C)[C@H](OC(C)=O)[C@@H]1C [rifampin],side effects,MS patients [3],gastrointestinal side effects
"β-IFN: Murine β-IFN obtained commercially (Bio-Source International); type-1 interferon (protein, UniProt P01575 22-182, looked up) Interferon beta: INYKQLQLQERTNIRKCQELLEQLNGKINLTYRADFKIPMEMTEKMQKSYTAFAIQEMLQNVFLVFRNNFSSTGWNETIVVRLLDELHQQTVFLKTVLEEKQEERLTWEMSSTALHLKSYYWRVQRYLKLMKYNSYAWMVVRAEIFRNFLIIRRLTRNFQN",suppression of induction of IL12/p40,"IL-12/p40; 10 U of β-IFN, EB antigens",78%
same,IL-12/p40 levels,"IL-12/p40; macrophages pretreated with β-IFN, then EB antigens for 48 hours (FIG. 14)",1.5 ± 0.09 ng/mL
same,RT-PCR signals for NOS2 gene,iNOS (NOS2) gene,increased RT-PCR signals for NOS2 gene
same,nitrite levels,"iNOS; 10 U of β-IFN added to EB antigen-treated macrophages, 48 hours (FIG. 10)",27.3 ± 0.4 µM
same,increase in NO,"iNOS; 10 U of β-IFN, macrophages cultured with LPS",35%
same,increase in the nitrite level,"iNOS; 10 U of β-IFN, macrophages incubated with 2 μg/ml of rMOMP",47%
same,nitrite levels in supernatants,"iNOS; prior addition of 1000 U of β-IFN to EB antigen-treated cultures, 48 hours (FIG. 9)",19.6 µM
same,nitrite levels in macrophage culture supernatants,"iNOS; β-IFN alone, no antigen",did not increase nitrite levels
